Entries after “also recorded” stand apart in the source; their conditions may differ. Peptide text beside a SMILES is read from it.
Legend:
normal human CD34+ cells [1] = experiment: Erythroid differentiation of normal human CD34+ cells, day 10; type: cell-based; details: 7.5 μm or 10 μm
Protocol: (§1) To assess the effects of TAT-MLL peptide on hematopoiesis, normal human CD34^+ cells were incubated with either the TAT-MLL peptide or the TAT-scrambled peptide at a concentration of either 7.5 μm or 10 μm. There was no effect of either the TAT-MLL peptide or the TAT-scrambled peptide on myeloid or erythroid differentiation. […] CD14-PE, CD15-FITC, CD71-FITC and GlyA (CD235a)-PE antibodies were obtained from Becton Dickinson

normal human CD34+ cells [2] = experiment: Myeloid differentiation of normal human CD34+ cells, day 10; type: cell-based; details: 7.5 μm or 10 μm
Protocol: as §1

[3] = target: T1, interaction of transfected MLL with endogenous menin (Homo sapiens, UniProt O00255); experiment: Disruption of binding of transfected FLAG-tagged MLL 1-330 to endogenous menin (anti-FLAG immunoprecipitation, anti-menin Western blot); details: for block of the interaction of transfected MLL with endogenous menin (Western blot, FIG. 1): lysates of 293 cells transfected with FLAG-tagged MLL 1-330, incubated with peptide, anti-FLAG IP, anti-menin blot; for inhibition of the binding of transfected MLL 1-330 to endogenous menin (Western blot, FIG. 2): each peptide tested at 10, 20, and 30 μM
T1 construct: endogenous in cells; host or cells: 293 cells (lysate; cells transfected with FLAG-MLL 1-330)
T1 sequence (O00255 1-610): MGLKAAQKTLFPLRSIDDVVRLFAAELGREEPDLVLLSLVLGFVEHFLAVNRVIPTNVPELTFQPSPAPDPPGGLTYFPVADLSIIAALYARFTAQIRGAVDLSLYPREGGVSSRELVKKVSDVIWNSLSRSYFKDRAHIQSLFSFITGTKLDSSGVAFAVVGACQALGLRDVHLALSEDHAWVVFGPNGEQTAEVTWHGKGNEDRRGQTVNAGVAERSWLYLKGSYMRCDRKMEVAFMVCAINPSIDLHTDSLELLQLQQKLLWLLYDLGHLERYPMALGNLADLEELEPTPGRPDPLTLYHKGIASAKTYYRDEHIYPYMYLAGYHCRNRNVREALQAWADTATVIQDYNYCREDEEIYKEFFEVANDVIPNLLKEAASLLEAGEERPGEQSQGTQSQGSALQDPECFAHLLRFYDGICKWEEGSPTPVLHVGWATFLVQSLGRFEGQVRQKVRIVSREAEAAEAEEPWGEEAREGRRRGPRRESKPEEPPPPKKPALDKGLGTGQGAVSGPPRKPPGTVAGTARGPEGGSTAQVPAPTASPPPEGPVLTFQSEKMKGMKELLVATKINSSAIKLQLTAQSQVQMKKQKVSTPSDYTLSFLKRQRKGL
Protocol: To determine the precise domain that mediates the binding of MLL to menin, a series of peptides from the N-terminus of MLL were synthesized. To assess disruption of binding of transfected MLL to endogenous menin, a FLAG-tagged MLL 1-330 construct was transfected into 293 cells and the cell lysates were incubated with a series of peptides listed below or with water as a control. Cell lysates were immunoprecipitated with anti-FLAG antibody (Sigma), separated by SDS-PAGE and blotted with an anti-menin antibody (Bethyl Laboratories Inc, or Santa-Cruz). The amino acid numbers from the N-terminus of MLL are indicated below (preceding the amino acid sequence) for the peptides analyzed for their ability to disrupt the interaction of MLL and menin.
Conditional inactivation of menin results in the reversal of the transforming properties of MLL fusion proteins. A high affinity menin binding domain has been localized to the N-terminal residues of MLL, and deletion of residues 6 through 10 of MLL prevents MLL-ELL from transforming hematopoietic progenitor cells. To target the MLL-menin interaction, a series of peptides were developed for the potential to block the interaction of menin with MLL. To establish the activity of these peptides, lysates of cells transfected with FLAG-tagged N-terminal MLL sequences were examined. The lysates were immunoprecipitated with a FLAG antibody, incubated with either an MLL peptide or a control scrambled peptide, and then blotted with an anti-menin antibody. […] To examine the activity of the TAT-MLL peptide, mouse and human leukemia cell lines were treated with the TAT-MLL peptide. […] (#TIB-202, American Type Culture Collection, Manassas, Va.).

Row | Compound | block of the interaction of transfected MLL with endogenous menin (Western blot, FIG. 1) [3] | also measured
1 | C[C@H](NC(=O)[C@@H]1CCCN1C(=O)[C@H](Cc1ccccc1)NC(=O)[C@H](CCCNC(=N)N)NC(=O)[C@H](Cc1c[nH]c2ccccc12)NC(=O)[C@H](CCCNC(=N)N)NC(=O)[C@H](CS)NC(=O)CNC(=O)CNC(=O)[C@H](CCCNC(=N)N)NC(=O)[C@H](CCCNC(=N)N)NC(=O)[C@H](CCCNC(=N)N)NC(=O)[C@H](CCC(N)=O)NC(=O)[C@H](CCCNC(=N)N)NC(=O)[C@H](CCCNC(=N)N)NC(=O)[C@H](CCCCN)NC(=O)[C@H](CCCCN)NC(=O)[C@@H](N)CCCNC(=N)N)C(=O)N[C@@H](CCCNC(=N)N)C(=O)N1CCC[C@H]1C(=O)NCC(=O)O [TAT-MLL, RKKRRQRRR-GG-CRWRFPARPG (SEQ ID NO: 15)] (H-RKKRRQRRRGGCRWRFPARPG-OH) | – | effect on erythroid differentiation (in words) (normal human CD34+ cells [1]): no effect; effect on myeloid differentiation (in words) (normal human CD34+ cells [2]): no effect
2 | C[C@H](NC(=O)[C@H](CCCNC(=N)N)NC(=O)CNC(=O)CNC(=O)[C@H](CCCNC(=N)N)NC(=O)[C@H](CCCNC(=N)N)NC(=O)[C@H](CCCNC(=N)N)NC(=O)[C@H](CCC(N)=O)NC(=O)[C@H](CCCNC(=N)N)NC(=O)[C@H](CCCNC(=N)N)NC(=O)[C@H](CCCCN)NC(=O)[C@H](CCCCN)NC(=O)[C@@H](N)CCCNC(=N)N)C(=O)N[C@@H](Cc1ccccc1)C(=O)N[C@@H](CCCNC(=N)N)C(=O)N1CCC[C@H]1C(=O)N[C@@H](CS)C(=O)N1CCC[C@H]1C(=O)N[C@@H](CCCNC(=N)N)C(=O)N[C@@H](Cc1c[nH]c2ccccc12)C(=O)NCC(=O)O [TAT-scrambled, RKKRRQRRR-GG-RAFRPCPRWG (SEQ ID NO: 18), reference compound] (H-RKKRRQRRRGGRAFRPCPRWG-OH) | – | effect on erythroid differentiation (in words) (normal human CD34+ cells [1]): no effect; effect on myeloid differentiation (in words) (normal human CD34+ cells [2]): no effect
3 | AHSCRWRFPARPG (SEQ ID NO: 11) [MLL peptide 2-14, peptide from the N-terminus of MLL, amino acids 2-14] | block the interaction of transfected MLL with endogenous menin | –
4 | AHSCRWRFPARPGTTGG (SEQ ID NO: 7) [MLL peptide 2-18, peptide from the N-terminus of MLL, amino acids 2-18] | block the interaction of transfected MLL with endogenous menin | –
5 | CRWRFPARPG (SEQ ID NO: 14) [MLL peptide 5-14] | block the interaction of transfected MLL with endogenous menin; also recorded: sufficient to block interaction with endogenous menin | inhibition of the binding of transfected MLL 1-330 to endogenous menin (Western blot, FIG. 2) [3]: dose-dependent inhibition
6 | CRWRFPARPGTTGG (SEQ ID NO: 10) [MLL peptide 5-18, peptide from the N-terminus of MLL, amino acids 5-18] | block the interaction of transfected MLL with endogenous menin | –
7 | HSCRWRFPARPG (SEQ ID NO: 12) [MLL peptide 3-14, peptide from the N-terminus of MLL, amino acids 3-14] | block the interaction of transfected MLL with endogenous menin | –
8 | HSCRWRFPARPGTTGG (SEQ ID NO: 8) [MLL peptide 3-18, peptide from the N-terminus of MLL, amino acids 3-18] | block the interaction of transfected MLL with endogenous menin | –
9 | MAHSCRWRFP (SEQ ID NO: 19) [MLL peptide 1-10, peptide from the N-terminus of MLL, amino acids 1-10] | do not block the interaction of MLL with menin | –
10 | MAHSCRWRFPA (SEQ ID NO: 20) [MLL peptide 1-11, peptide from the N-terminus of MLL, amino acids 1-11] | do not block the interaction of MLL with menin | –
11 | MAHSCRWRFPAR (SEQ ID NO: 21) [MLL peptide 1-12, peptide from the N-terminus of MLL, amino acids 1-12] | do not block the interaction of MLL with menin | –
12 | MAHSCRWRFPARP (SEQ ID NO: 1) [MLL peptide 1-13, peptide from the N-terminus of MLL, amino acids 1-13] | block the interaction of transfected MLL with endogenous menin | –
13 | MAHSCRWRFPARPG (SEQ ID NO: 2) [MLL peptide 1-14, peptide from the N-terminus of MLL, amino acids 1-14] | block the interaction of transfected MLL with endogenous menin | –
14 | MAHSCRWRFPARPGTTGG (SEQ ID NO: 3) [MLL peptide 1-18, peptide from the N-terminus of MLL, amino acids 1-18] | block the interaction of transfected MLL with endogenous menin | –
15 | MAHSCRWRFPARPGTTGGGGGG (SEQ ID NO: 4) [MLL peptide 1-22, peptide from the N-terminus of MLL, amino acids 1-22] | block the interaction of transfected MLL with endogenous menin | –
16 | MAHSCRWRFPARPGTTGGGGGGGRRG (SEQ ID NO: 5) [MLL peptide 1-26, peptide from the N-terminus of MLL, amino acids 1-26] | block the interaction of transfected MLL with endogenous menin | –
17 | MAHSCRWRFPARPGTTGGGGGGGRRGLGGG (SEQ ID NO: 6) [MLL peptide 1-30, peptide from the N-terminus of MLL, amino acids 1-30] | block the interaction of transfected MLL with endogenous menin | –
18 | RFPARPGTTGG (SEQ ID NO: 24) [MLL peptide 8-18, peptide from the N-terminus of MLL, amino acids 8-18] | do not block the interaction of MLL with menin | –
19 | RKKRRQRRR-GG-MAHSCRWRFPARPGTTGG (SEQ ID NO: 17) (RKKRRQRRRGGMAHSCRWRFPARPGTTGG) [TAT-MLL 1-18, longer MLL peptide, residues 1-18, fused to TAT] | – | inhibition of the binding of transfected MLL 1-330 to endogenous menin (Western blot, FIG. 2) [3]: dose-dependent inhibition
20 | RWRFPARPG (SEQ ID NO: 25) [MLL peptide 6-14, peptide from the N-terminus of MLL, amino acids 6-14] | do not block the interaction of MLL with menin | –
21 | RWRFPARPGTTGG (SEQ ID NO: 22) [MLL peptide 6-18, peptide from the N-terminus of MLL, amino acids 6-18] | do not block the interaction of MLL with menin | –
22 | SCRWRFPARPG (SEQ ID NO: 13) [MLL peptide 4-14, peptide from the N-terminus of MLL, amino acids 4-14] | block the interaction of transfected MLL with endogenous menin | –
23 | SCRWRFPARPGTTGG (SEQ ID NO: 9) [MLL peptide 4-18, peptide from the N-terminus of MLL, amino acids 4-18] | block the interaction of transfected MLL with endogenous menin | –
24 | WRFPARPGTTGG (SEQ ID NO: 23) [MLL peptide 7-18, peptide from the N-terminus of MLL, amino acids 7-18] | do not block the interaction of MLL with menin | –
